Assay results reported in patent publication US20240166745A1 (Eli Lilly, published 2024).
Substitutions are numbered along the chain they refer to.

B1: Antibody A (bispecific antibody, human IgG1, kappa, lambda)
heavy 1: not shown
light 1: DIVMTQTPLSLPVTPGEPASISCRSSQSLLDSAEGSTYLDWFLRKPGDSPQLLIYTLSYRASGVPDRFSGSGSGTDFTLKISRVEAEDVGVYYCMQRVEFPYTFGQGTKVEIKRTVAAPSVFIFPPSKEQLKSGTASVVCLLNNFYPREAKVQWKVDNALQSGNSQESVTEQDSKDSTYSLSSTLTLSKADYEKHKVYACEVTHQGLSSPVTKSFNRGEC
heavy 2: QVQLVQSGAEVKKPGASVKVSCKVSGYSLSKYDMSWVRKAPGKGLEWMGIIYTSGYTDYAQEFQGRVTMTEDTSTDTAYMELSSLRSEDTAVYYCATGNPYYTNGFNSWGQGTLVTVSSASTKGPSVFPLAPSSKSTSGGTAALGCLVKDYFPEPVTVSWNSGALTSGVATGPAVLQSSGLYSLSSVVTVPSSSLGTQTYICNVNHKPSNTKVDKRVEPKSCDKTHTCPPCPAPELLGGPSVFLFPPKPKDTLMISRTPEVTCVVVDVSHEDPEVKFNWYVDGVEVHNAKTKPREEQYNSTYRVVSVLTVLHQDWLNGKEYKCKVSNKALPAPIEKTISKAKGQPREPQVYTLPPSREEMTDNQVSLTCLVKGFYPSDIAVEWESNGQPENNYKTTPPVLMSDGSFFLASKLTVDKSRWQQGNVFSCSVMHEALHNHYTQKSLSLSPGK
light 2: RIQMTQSPSSLSASVGDRVTITCQASQSPNNLLAWYQDKPGKAPKLLIYGASDLPSGVPSRFSGSGSGTDFTLTISSLQPEDFATYYCQNNYYVGPVSYAFGGGTKVEIKGQPKAAPSVTLFPPSSEELQANKATLVCYISDFYPGAVTVAWKADSSPVKAGVETTTPSKQSNNKYAAWSYLSLTPEQWKSHRSYSCQVTHEGSTVEKTVAPTEC
notes: IgG-like bispecific with one LAG-3 arm and one PD-1 arm; also called human LAG-3/human PD-1 dual agonist bispecific antibody
B2: Antibody B (bispecific antibody, human IgG1, kappa, lambda)
heavy 1: not shown
light 1: B1 light 1
heavy 2: B1 heavy 2 with K324A
light 2: B1 light 2
notes: also called human LAG-3/human PD-1 dual agonist bispecific antibody

Columns and labels:
Cynomolgus PD-1-ECD [1] = molecular target: T1, Cynomolgus PD-1-ECD (cynomolgus, UniProt B0LAJ3 25-170); assay: SPR (Biacore T200), antibody captured on PrismA chip, ECD as analyte, 37° C.
T1 construct: commercial protein; also called cynomolgus PD-1-ECD (Sino Biologicals, Cat #90311-C08H); not shown: C-terminal polyhistidine tag of the vendor product (Sino Biological 90311-C08H)
Description: (§1) A Biacore® T200 (Cytiva, Marlborough, MA) was used to measure the binding kinetics and affinities of the LAG-3 antibody to the LAG-3 soluble extracellular domain (ECD) and the bispecific antibody to soluble LAG-3-ECD and PD-1-ECD (human: Sino Biologicals, Cat #10377-H08H; cynomolgus: Sino Biologicals, Cat #90311-C08H) by surface plasmon resonance. Samples were diluted in HBS-EP+ (10 mM Hepes, 150 mM NaCl, 3 mM EDTA, 0.05% Tween-20, pH 7.6) (Teknova Cat #H8022) with 5 g/L of BSA (Jackson ImmunoResearch Cat #001-000-161) running buffer. PrismA Series S Sensor chip (Cat #29650263) is purchased from Cytiva.
(§2) Binding was evaluated using multi-cycle kinetics by an antibody capture method. Each cycle was performed at either 37° C. or 25° C. at a flow rate of 10 μL/min for antibody capture to the PrismA chip and 100 μL/min for analyte association (with 120 sec contact time) and dissociation (900 sec). Each cycle consisted of the following steps: injection of bispecific antibody at 1 μg/mL in HBS-EP+ targeting Rmax values of 125 RU (LAG-3 arm), 294 RU (PD-1 arm) and 63 RU (LAG-3 antibody) on flow cell, injection of analyte in HBS-EP+(concentration range of 62.5 nM to 0.25 nM by two-fold serial dilution for both human PD-1-ECD-His (SEQ ID NO: 40) and human LAG-3-His (SEQ ID NO: 42) followed by 900-second dissociation phase, and regeneration using 10 μL of 10 mM glycine hydrochloride, pH 1.5 over a 60-second contact time utilizing a 10 μL/min flow rate. All analyte concentrations were determined utilizing monomeric molecular weight (MW) values. Association rates (kₒₙ) and dissociation rates (koff) for LAG-3-ECD and PD-1-ECD were evaluated using double referencing by flow-cell one reference subtraction in addition to 0 nM blank subtraction and fit to “1:1 (Langmuir) binding” model in the BIAevaluation software version 4.1. The dissociation constant (KD) was calculated from the binding kinetics according to the relationship KD=Koff/Kₒₙ. Stoichiometry=[RUₘₐₓ/RUcaptured]/[MWanalyte/MWantibody] where MWAntibodyA is 150 kDa. Values are reported as mean±standard deviation.

Human PD-1 ECD-His [2] = molecular target: T2, Human PD-1 ECD-His (human, UniProt Q15116 25-167); assay: as above
T2 construct: Soluble analyte in SPR; the entry includes the His tag
Description: as §1, §2

Human PD-1 ECD-His [3] = molecular target: T2, Human PD-1 ECD-His; assay: SPR (Biacore T200), antibody captured on PrismA chip, ECD as analyte, 25° C.; 25° C.
Description: as §1
Binding was evaluated using multi-cycle kinetics by an antibody capture method. […] Each cycle consisted of the following steps: injection of bispecific antibody at 1 μg/mL in HBS-EP+ targeting Rmax values of 125 RU (LAG-3 arm), 294 RU (PD-1 arm) and 63 RU (LAG-3 antibody) on flow cell, injection of analyte in HBS-EP+(concentration range of 62.5 nM to 0.25 nM by two-fold serial dilution for both human PD-1-ECD-His (SEQ ID NO: 40) and human LAG-3-His (SEQ ID NO: 42) followed by 900-second dissociation phase, and regeneration using 10 μL of 10 mM glycine hydrochloride, pH 1.5 over a 60-second contact time utilizing a 10 μL/min flow rate. All analyte concentrations were determined utilizing monomeric molecular weight (MW) values. […]

Human LAG-3 ECD-His = molecular target: T3, Human LAG-3 ECD-His (human, UniProt P18627 23-449); assay: SPR (Biacore T200), antibody captured on PrismA chip, ECD as analyte, 37° C.
T3 construct: Soluble analyte in SPR; the entry includes linker and His tag; also called human LAG-3-His
T3 sequence: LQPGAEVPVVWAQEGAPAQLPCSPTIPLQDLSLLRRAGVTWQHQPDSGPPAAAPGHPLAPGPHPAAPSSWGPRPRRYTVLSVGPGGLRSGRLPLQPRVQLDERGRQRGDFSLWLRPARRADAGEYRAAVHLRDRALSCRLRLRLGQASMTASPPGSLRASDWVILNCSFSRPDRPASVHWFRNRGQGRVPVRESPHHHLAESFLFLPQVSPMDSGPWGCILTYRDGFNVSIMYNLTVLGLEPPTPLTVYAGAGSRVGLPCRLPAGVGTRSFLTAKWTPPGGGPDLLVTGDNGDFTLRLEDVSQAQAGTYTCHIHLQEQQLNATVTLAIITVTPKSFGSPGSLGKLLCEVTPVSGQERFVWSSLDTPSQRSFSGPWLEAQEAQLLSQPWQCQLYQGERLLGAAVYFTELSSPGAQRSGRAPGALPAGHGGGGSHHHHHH
Description: as §1, §2

Cynomolgus PD-1-ECD [4] = molecular target: T1, Cynomolgus PD-1-ECD; assay: SPR (Biacore T200), antibody captured on PrismA chip, ECD as analyte; temperature unclear: the 37° C. label is printed only at r14, by the order of Table 3a probably 37° C.
Description: as §1, §2

Human PD-1 ECD-His [5] = molecular target: T2, Human PD-1 ECD-His; assay: as above
Description: as §1, §2

T2 sequence (Q15116 other isoform, or with tags, fused parts or gaps): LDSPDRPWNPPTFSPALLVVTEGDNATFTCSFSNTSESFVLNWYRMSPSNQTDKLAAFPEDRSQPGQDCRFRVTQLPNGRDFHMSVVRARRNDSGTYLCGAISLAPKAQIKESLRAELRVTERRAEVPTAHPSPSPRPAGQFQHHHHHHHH
T1 sequence (B0LAJ3 entry or part of it limits assumed): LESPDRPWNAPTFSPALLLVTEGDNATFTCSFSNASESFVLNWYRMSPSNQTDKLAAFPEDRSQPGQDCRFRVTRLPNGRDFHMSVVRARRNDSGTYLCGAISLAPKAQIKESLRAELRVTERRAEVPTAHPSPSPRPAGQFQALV

Binder	Kd (Cynomolgus PD-1-ECD [1])	koff (Cynomolgus PD-1-ECD [1])	kon (Cynomolgus PD-1-ECD [1])	Kd (Human PD-1 ECD-His [2])	koff (Human PD-1 ECD-His [2])	kon (Human PD-1 ECD-His [2])	kon (Human PD-1 ECD-His [3])	Kd (Human LAG-3 ECD-His)	koff (Human LAG-3 ECD-His)	kon (Human LAG-3 ECD-His)	Kd (Cynomolgus PD-1-ECD [4])	koff (Cynomolgus PD-1-ECD [4])	kon (Cynomolgus PD-1-ECD [4])	Kd (Human PD-1 ECD-His [5])	koff (Human PD-1 ECD-His [5])
B1	3.5 nM	0.0087 s⁻¹	2.5e+06 M⁻¹ s⁻¹	0.66 nM	0.0017 s⁻¹	2.5e+06 M⁻¹ s⁻¹	750000 M⁻¹ s⁻¹								
B2								6.1 nM	0.34 s⁻¹	5.5e+07 M⁻¹ s⁻¹	3.1 nM	0.0088 s⁻¹	2.8e+06 M⁻¹ s⁻¹	0.65 nM	0.0015 s⁻¹
